Assay results published in paper PMC9887155 (2023).
Ends that are not written are not given here.

Legend:
[1] = biological target: T1, Gtα/Giα with a C-terminus truncated by six amino acids (European robin (Erithacus rubecula)); assay: SPR; two-state reaction model, first step (kd1/ka1)
[2] = biological target: T1, Gtα/Giα with a C-terminus truncated by …; assay: SPR; two-state reaction model, kd1

Question: Which Kd [1] does the source give for CGAGAWERWFVVCKPFGNIKFDGK-NH2 (cysteine pairing not given here) [peptide LWO2 (second cytoplasmic loop of long-wavelength-sensitive opsin of European robin)] here?
Answer: 933 nM

Question: What about the koff [2] of the same binder?
Answer: 0.00434 s⁻¹
